Data as given in patent publication US20220363716A1.

How the values were obtained:
[1] = target: human serum-derived IgG (SIGMA, #14506, Lot #SLBR0560V) (human); experiment: frontal loading of 0.67 mg/ml IgG on a 1-ml Z33 column (912 nmol), 20 mM phosphate pH 7.0
[2] = target: human serum-derived IgG (SIGMA, #14506, Lot #SLBR0560V) (human); experiment: elution at pH 3.5 from the 1-ml Z33 column, A280

Substance: IgG-bound peptide Z33 Acetyl-…-NH2, immobilized on a HiTrap NHS-activated HP column
- dynamic binding capacity (DBC) [1]: 26 mg
- amount of the antibody bound to the column [2]: 19 mg
